Tests used:
[1] = tested on: T1, Cc1cc(=O)oc2cc(NC(=O)[C@H](CCCNC(=N)N)NC(=O)[C@H](Cc3ccccc3)NC(=O)[C@H](C)NC(=O)[C@H](CCCCN)NC(=O)CN)ccc12; experiment: hK2 mediated hydrolysis of peptide substrates in solution (fluorescence); format: biochemical, human; conditions: other: Lineweaver-Burke reciprocal plots; 37.0 °C
T1 construct: made in house

[2] = tested on: T2, C[C@H](NC(=O)[C@H](CCCCN)NC(=O)CNC(=O)[C@@H](N)Cc1ccc(O)c([N+](=O)[O-])c1)C(=O)N[C@@H](Cc1ccccc1)C(=O)N[C@@H](CCCNC(=N)N)C(=O)N[C@@H](CCCNC(=N)N)C(=O)N[C@@H](CN)C(=O)N[C@@H](Cc1ccccc1)C(=O)N[C@@H](CCCCNC(=O)c1ccccc1N)C(=O)O; experiment: as above; format: biochemical, human; conditions: other: Lineweaver-Burke reciprocal plots; 37.0 °C
T2 construct: made in house
Protocol: FIG. 2 depicts a graph of hK2 mediated hydrolysis of peptide substrates identified through the screening of a random peptide library [Y′GKARAF-Dap-FK′ (SEQ ID NO:36), Y′GKAKPR-Dap-FK′ (SEQ ID NO:37), Y′GKAFRR-Dap-FK′ (SEQ ID NO:38), Y′GKAMRQ-Dap-FK′ (SEQ ID NO:39) and Y′GSKGHFKL-Dap-F-K′ (SEQ ID NO:40)]. Substrates (250 μM) were incubated with 8 μg/ml hK2 in PBS buffer. Hydrolysis of peptide results in increased fluorescence, as measured using a 96 well fluorometer. […] To determine 100% digestion, trypsin was added (50 mg/ml) and samples were incubated to 37° C. for 30 min and the fluorescence was determined. The percentage digested is determined by dividing fluorescence units of sample by fluorescence units of control fully digested peptide.
A mutant form of hK2 was utilized in which the amino acids −5 to −1 of the propeptide sequence of hK2 (i.e. Leu-Ile-Gln-Ser-Arg; SEQ ID NO:15) were mutated to Asp-Asp-Asp-Asp-Lys (SEQ ID NO:16) to generate a pro-hK2 protein that can be activated to functional hK2 by […] (Lovgren, J. et al. (1999) Eur. J. Biochem. 266:1050-1055). […]
For validation of the Edman results, peptides were re-synthesized using a Rainin PS3 peptide synthesizer with HBTU/NMM activation. […] Fluorescence measurements were performed on a Fluoroskan II 96-well plate reader (ICN biomedicals, Costa Mesa, Calif.; excitation, 355 nm; emission, 460 nm). Kinetic parameters were calculated as described earlier (Denmeade, S. R. et al. (1997) Cancer Res. 57:4924-4930).
The combinatorial screen identified seven arginine-containing peptides. […] All four arginine-containing sequences that were re-synthesized reproduced fluorescence when these peptides were digested on-bead with hK2. For a more quantitative analysis, the fluorescence-quenched peptides were cleaved off the resin and purified by HPLC. The rate of hydrolysis was quantified by measuring increase in fluorescence (Figure). […] In subsequent studies, hydrolysis rates using the Y′GKAFRR-Dap-F-K′ (SEQ ID NO:38) peptide were analyzed by Lineweaver-Burke reciprocal plots.

hK2 (Homo sapiens) gave a Km [1] of 146 µM, a kcat [1] of 0.13 s⁻¹ and a kcat/Km [1] of 895 M⁻¹ s⁻¹. The Km [2] was 26.5 µM, the kcat [2] was 1.09 s⁻¹ and the kcat/Km [2] was 41,132 sec^−1 M^−1.
